The chains are these.
B1: Sperm-egg fusion protein Juno (Homo sapiens), A6ND01-1 (parent)
chain: MACWWPLLLELWTVMPTWAGDELLNICMNAKHHKRVPSPEDKLYEECIPWKDNACCTLTTSWEAHLDVSPLYNFSLFHCGLLMPGCRKHFIQAICFYECSPNLGPWIQPVGSLGWEVAPSGQGERVVNVPLCQEDCEEWWEDCRMSYTCKSNWRGGWDWSQGKNRCPKGAQCLPFSHYFPTPADLCEKTWSNSFKASPERRNSGRCLQKWFEPAQGNPNVAVARLFASSAPSWELSYTIMVCSLFLPFLS
B2: Izumo sperm-egg fusion protein 1 (Homo sapiens), Q8IYV9-1 (parent)
chain: MGPHFTLLCAALAGCLLPAEGCVICDPSVVLALKSLEKDYLPGHLDAKHHKAMMERVENAVKDFQELSLNEDAYMGVVDEATLQKGSWSLLKDLKRITDSDVKGDLFVKELFWMLHLQKETFATYVARFQKEAYCPNKCGVMLQTLIWCKNCKKEVHACRKSYDCGERNVEVPQMEDMILDCELNWHQASEGLTDYSFYRVWGNNTETLVSKGKEATLTKPMVGPEDAGSYRCELGSVNSSPATIINFHVTVLPKMIKEEKPSPNIVTPGEATTESSISLQPLQPEKMLASRLLGLLICGSLALITGLTFAIFRRRKVIDFIKSSLFGLGSGAAEQTQVPKEKATDSRQQ

The variants in one experiment derive from B1. The settings on record: with IZUMO1, Q8IYV9-1.
Turning to E45K, the “effect of a mutation on the interaction” value was “decreasing interaction strength”. Turning to E45A, the “effect of a mutation on the interaction” value is on record as “decreasing interaction strength”. With L81A, the “effect of a mutation on the interaction” value was “disrupting interaction strength”. Take K163E: the “effect of a mutation on the interaction” value is given as “decreasing interaction strength”. Regarding K163A, the “effect of a mutation on the interaction” value is “decreasing interaction strength”. As to W62A, the “effect of a mutation on the interaction” value is on record as “decreasing interaction strength”.

The variants in the next experiment derive from B2. To be noted: with IZUMO1R.
H157A: the “effect of a mutation on the interaction” value is on record as “decreasing interaction strength”. As to E71A, the “effect of a mutation on the interaction” value is recorded as “decreasing interaction strength”. In the case of E71K, the “effect of a mutation on the interaction” value is “decreasing interaction strength”.

In the case of W148A, the “effect of a mutation on the interaction” value is recorded as “disrupting interaction strength”. In the case of R160A, the “effect of a mutation on the interaction” value is given as “decreasing interaction strength”.

Regarding R160E, the “effect of a mutation on the interaction” value is “decreasing interaction strength”.
